Drawing on patent US20220089784A1 (University of California, published 2022), this text covers Kd for 10 molecules.

The labels stand for the following.
B1: B4 (antibody) (antibody, V domains shown)
VH: QVQLVESGGGVVRPGGSLRLSCAASGFTFDDYGMSWVRQAPGKGLEWVSAINWNGGNTGYADSVKGRFTISRDNAKNSLYLQMNSLRVEDTALYHCAREGDYGGLYFDYWGQGTLVTVSS
VL: not shown
B2: 6A8M IgG (antibody, V domains shown)
VH: QVQLKESGPGLVKPSQTVSLTCTVTGYSITNGNHWWNWIRQVSGSKLEWIGYISSSGYTDINPSLKSRISITRDTSKNQLFLQLNSVTTEDIATYYCARDDGYYEALDYWGQGTSVTVSS
VL: DIVMSQSPAIMSASPGEKVTLTCSASSSVSSNYLYWYQQKPGSSPKLWIYSTSNLASGVPARFSGSGSGTSYSLTISRVEAEDAATYYCQQWSSNPPTFGGGTKLEIK
notes: IgG converted from scFv
B3: 6A2M IgG (antibody, V domains shown)
VH: EVQLQQSGAELVRPGTSVKLSCKSSGYTFTSDWMHWVIQRPGQGLEWIGVIDPSDSYTNYNQKFKGKATLTVDTSSSTAYMHLSSLTSEDSAVYYCARREGHYYGKAMDYWGQGTSVTVSS
VL: DIVMSQSPASLAVSLGQRATISCRASESVDYDGDSYMNWYQQKPGQPPKLLIYAASNLESGIPARFSGSGSGTDFTLNIHPVEEEDAATYYCLQSNEAPWTFGGGTKLEIK
notes: IgG converted from scFv
B4: 6A3M IgG (antibody, V domains shown)
VH: EVQLQQSGAELVKPGASVKLSCKASGYTFTSYWMHWIKQRPGQGLEWIGVIDPSDSYTNYNQKFKGKATLTVDTSSSTAYMQLSSLTSEDSAVYYCATGGNGFFDYWGQGTTLTVSS
VL: B3 VL with M4L, S5T, I110L
notes: IgG converted from scFv
B5: 6A4M IgG (antibody, V domains shown)
VH: EVQLQQSGAELVRPGTSVKLSCKASGYTFTSYWMHWVKQRPGQGLEWIGVIDPSDSYTNYNQKFKGKATLTVDTSSSTAYMQLSSLASEDSAVYYCARYPGNRAMDYWGQGTSVTVSS
VL: B3 VL with M4L, S5T
notes: IgG converted from scFv
B6: 26D9 scFv (scFv)
scFv: DVQLQESGAELVKPGASVKLSCKASGFTFTDYWMHWVKQRPGQGLEWIGMIHPYNGDNNYHEKFKSKATLTVDKSSSTAYMQLSSLTTEDSAVYYCVRNDYDPYYYALDYWGQGTSLTVSAVDLKSGGSTSGSGKPGSGEGSSGSARQIVLTQSPAIMSASPGEKVTMSCRASSSVSYVYWYQQKPGSSPKPWIYRTSNLASGVPVRFSGSGSGTSYSLTISRVEAEDAATYYCQQWSSYPPTFGGGTKLEIK
notes: mouse
B7: 26C2 scFv (scFv)
scFv: QVQLKQSGPELVKPGASVKLSCKASGYTFTSYDINWVKQRPGQGLEWIGWIYPRDDITKYNEKFKDKATLTVDTSSSTAYMELHSLTSEDSAVYFCARGDYYGSLDYWGQGTTLTVSSVDLKSGGSTSGSGKPGSGEGSSGSARQIVLTQSPAIMSASPGEKVTMTCSASSSVSYMHWYQQKSSTSPKLWIYDTSKLASGVPGRFSGSGSGNSYSLTISSMEAEDVATYYCFQGSGYPLTFGAGTKLEIK
notes: mouse
B8: 26B2 scFv (scFv)
scFv: DVQLQESGPELVKPGASVKISCKASGYTFADYYINWVKQSHGKSLEWIGDFNPNNGDHSYNQKFKDKATLTVDESSNTAYMELRSLTSEDSAVYYCTREFYYYFDVWGTGTSVTVSSVDLKSGGSTSGSGKPGSGEGSSGSARDIEMTQTPAIMSASPGEKVTMTCSASSSVSSRYLHWYQQKSGASPKLWIYGTSNLASGVPARFSGSGSGTSYSLTISNVEAEDAATYYCQQYHSDPLTFGAGTKLEIK
notes: mouse
B9: 26G5 scFv (scFv)
scFv: EVQLQESGPGLAKPSQTLSLTCSVTGYSITSDYWNWIRKFPGNKLEYMGYISYSGSTYYNPSLKSRISITRDTSKNQYYLQLNSVTTEDTATYYCARSFYDGYLYFDYWGQGTTVTVSSVDLKSGGSTSGSGKPGSGEGSSGSAREIVLTQSPAILSASPGEKVTMTCSASSSVSYMYWYQQKPGSSPRLLIYDTSNLASGVPARFSGSGSGTSYSLTISRVEAEDAATYYCQQWSSYPPTFGDGTRLEIK
notes: mouse
B10: 26E6 scFv (scFv)
scFv: EVQLQQSGPELVKPGASVKISCKASGYTFADYYINWVKQSHGKSLEWIGDFNPNNGDHSYNQKFKDKATLTVDESSNTAYMELRSLTSEDSAVYYCTREFYYYFDVWGTGTTVTVSSVDLKSGGSTSGSGKPGSGEGSSGSARDIVMSQSPLSLPVSLGDQAFISCRFSQSIVHSNGNTYLEWYLQKPGQSPKLLIYKVSNRFSGVPDRFSGSGSGTDFTLKISRVEAEDLGVYYCFQGSHVPYTFGGGTKLEIK
notes: mouse

Numbering of substitutions follows the chain as printed.

The target of the first assay is T1, BoNT/A1 holotoxin (Hall hyper) (Clostridium botulinum, UniProt P0DPI0 2-1296).
Assay: not given
Regarding B1, the Kd (commonly the concentration at which binding is half-saturated) turned out to be 0.0931 nM.

Another assay has as its target T1, BoNT/A1 holotoxin (Hall hyper). The assay can be described thus: KinExA, IgG.
B2 yielded a Kd of 0.852 nM.

The target of the next assay is BoNT/A light chain (recombinant) (Clostridium botulinum, UniProt P0DPI0 1-448). The assay can be described thus: KinExA, IgG.
As for B3, the Kd was found to be 45 nM. On the same count and under the same terms, to B4 belongs 10 nM; to B5, 21 nM; to B2, 4.99 nM.

A further assay addresses T2, BoNT/B HC (C-terminal domain of the BoNT/B heavy chain, recombinant) (Clostridium botulinum, UniProt P10844 853-1291).
T2 sequence: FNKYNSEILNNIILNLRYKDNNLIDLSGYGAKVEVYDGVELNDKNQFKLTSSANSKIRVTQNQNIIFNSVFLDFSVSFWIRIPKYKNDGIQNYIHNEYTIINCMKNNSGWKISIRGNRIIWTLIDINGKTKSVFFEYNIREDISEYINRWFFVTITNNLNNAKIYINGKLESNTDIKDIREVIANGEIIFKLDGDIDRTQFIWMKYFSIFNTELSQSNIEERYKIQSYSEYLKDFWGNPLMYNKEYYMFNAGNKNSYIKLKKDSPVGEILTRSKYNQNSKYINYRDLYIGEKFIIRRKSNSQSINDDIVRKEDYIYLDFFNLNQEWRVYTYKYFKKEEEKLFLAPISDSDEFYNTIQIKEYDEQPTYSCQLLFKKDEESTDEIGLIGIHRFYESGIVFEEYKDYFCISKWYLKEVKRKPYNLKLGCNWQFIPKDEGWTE
Description: yeast scFv FACS.
Turning to B6, the Kd was 0.089 nM. The same measure, in the same setting: the value for B7 was 7.76 nM. B8: the Kd worked out at 0.086 nM. On to B9, for which the Kd worked out at 1.79 nM. Same read-out and setting: the value for B10 was 0.889 nM.

The target in another assay is T3, BoNT/B1 (Clostridium botulinum, UniProt P10844 2-1291).
T3 sequence: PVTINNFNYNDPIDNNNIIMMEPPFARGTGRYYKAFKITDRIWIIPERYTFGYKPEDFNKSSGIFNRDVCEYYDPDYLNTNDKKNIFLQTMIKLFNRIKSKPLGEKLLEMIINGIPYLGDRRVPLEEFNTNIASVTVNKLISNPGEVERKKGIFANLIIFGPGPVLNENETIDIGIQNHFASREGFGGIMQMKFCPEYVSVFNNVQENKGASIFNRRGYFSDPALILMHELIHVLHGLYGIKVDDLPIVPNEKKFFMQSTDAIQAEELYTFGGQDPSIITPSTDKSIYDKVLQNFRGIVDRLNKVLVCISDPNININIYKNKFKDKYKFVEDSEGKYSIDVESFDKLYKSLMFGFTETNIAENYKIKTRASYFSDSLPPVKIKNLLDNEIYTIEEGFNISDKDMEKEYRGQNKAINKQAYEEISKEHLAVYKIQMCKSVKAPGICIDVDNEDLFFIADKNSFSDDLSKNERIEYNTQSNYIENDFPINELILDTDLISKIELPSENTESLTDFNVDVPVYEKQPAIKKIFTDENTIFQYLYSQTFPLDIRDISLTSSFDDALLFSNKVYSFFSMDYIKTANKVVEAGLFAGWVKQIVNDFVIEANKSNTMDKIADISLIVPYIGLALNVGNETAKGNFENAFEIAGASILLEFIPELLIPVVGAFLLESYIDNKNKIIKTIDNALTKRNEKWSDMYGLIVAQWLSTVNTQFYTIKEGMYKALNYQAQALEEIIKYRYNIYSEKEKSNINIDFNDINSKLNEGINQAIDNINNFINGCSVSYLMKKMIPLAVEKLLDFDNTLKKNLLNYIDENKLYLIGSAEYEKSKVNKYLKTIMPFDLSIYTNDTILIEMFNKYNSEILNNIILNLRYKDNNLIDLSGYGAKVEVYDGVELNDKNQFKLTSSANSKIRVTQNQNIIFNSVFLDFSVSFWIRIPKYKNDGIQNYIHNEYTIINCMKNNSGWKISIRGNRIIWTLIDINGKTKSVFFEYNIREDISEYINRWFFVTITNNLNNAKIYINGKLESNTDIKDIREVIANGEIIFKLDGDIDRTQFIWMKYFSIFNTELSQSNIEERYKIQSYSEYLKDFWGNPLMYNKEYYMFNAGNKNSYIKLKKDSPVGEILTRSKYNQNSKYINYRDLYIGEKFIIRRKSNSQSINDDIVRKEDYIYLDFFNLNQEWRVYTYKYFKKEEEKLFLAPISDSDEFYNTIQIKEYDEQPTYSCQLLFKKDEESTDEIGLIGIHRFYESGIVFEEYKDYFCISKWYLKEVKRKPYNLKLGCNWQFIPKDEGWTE
Description: yeast scFv FACS.
The molecule B6 displayed a Kd of 0.582 nM. Consider B7, for which the Kd is 23.7 nM. Still for that read-out and setting: to B8 belongs 0.276 nM. B9: binding was put at a Kd of 3.91 nM. For B10, the Kd was found to be 4.85 nM.
